From US7183387 (Genentech, dated 2007) come the findings set out here.

Positions count from the first letter of the chain named. In names and notes the source's numbering stands.

Assay [1] addresses T1, human FcγRIIA-Arg131 α subunit extracellular domain-His6-GST fusion (human, UniProt P12318 34-217).
T1 construct: extracellular domain; also called FcγRIIA-R131; not shown: glutathione S transferase (GST)
T1 sequence: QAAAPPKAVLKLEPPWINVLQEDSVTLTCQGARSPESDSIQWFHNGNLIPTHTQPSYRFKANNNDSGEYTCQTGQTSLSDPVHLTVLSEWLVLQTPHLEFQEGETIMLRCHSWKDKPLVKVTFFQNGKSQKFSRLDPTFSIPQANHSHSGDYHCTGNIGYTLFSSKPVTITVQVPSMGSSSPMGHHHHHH
In words: hexamer ELISA. For orientation: An ELISA detects its analyte on a solid surface through an enzyme-linked reagent.

In assay [2] the target is T2, human FcγRIIIA-Phe158 α subunit extracellular domain-His6-GST fusion (human, UniProt P08637 17-208).
T2 construct: extracellular domain; also called FcγRIIIA-F158; CD16; not shown: glutathione S transferase (GST)
T2 sequence (P08637 other isoform, or with tags, fused parts or gaps): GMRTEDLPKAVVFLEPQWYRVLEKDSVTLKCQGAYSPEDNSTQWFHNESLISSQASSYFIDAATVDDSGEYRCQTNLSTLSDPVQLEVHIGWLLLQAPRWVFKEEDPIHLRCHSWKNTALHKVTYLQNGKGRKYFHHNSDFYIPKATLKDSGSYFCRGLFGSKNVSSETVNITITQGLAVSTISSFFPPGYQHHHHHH
In words: hexamer ELISA.

Assay [3] deals with T3, human FcγRIIA-R131 α subunit extracellular domain-6His-GST fusion (human, UniProt P12318 34-217).
T3 construct: also called FcγRIIA-Arg131; not shown: glutathione S-transferase (GST)
T3 sequence: T1 sequence
Description: ELISA, IgG:IgE hexamers on receptor-GST.

Assay [4] addresses T4, human FcγRIIB α subunit extracellular domain-6His-GST fusion (human, UniProt P31994 43-217).
T4 construct: not shown: glutathione S-transferase (GST)
T4 sequence: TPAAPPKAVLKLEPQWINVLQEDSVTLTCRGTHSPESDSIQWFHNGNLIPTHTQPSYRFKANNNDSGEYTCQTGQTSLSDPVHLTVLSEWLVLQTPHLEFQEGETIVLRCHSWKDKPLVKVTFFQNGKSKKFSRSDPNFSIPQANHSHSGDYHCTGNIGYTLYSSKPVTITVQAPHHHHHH
Description: ELISA, IgG:IgE hexamers on receptor-GST.

The target in assay [5] is T5, human FcγRIIIA-F158 α subunit extracellular domain-6His-GST fusion (human, UniProt P08637 17-208).
T5 construct: also called FcγRIIIA-Phe158; not shown: glutathione S-transferase (GST)
T5 sequence (P08637 other isoform, or with tags, fused parts or gaps, form in doubt): as the sequence (P08637 other isoform, or with tags, fused parts or gaps) above
In words: ELISA, IgG:IgE hexamers on receptor-GST.

For assay [6], the target named is T6, human FcγRI (FcγRIA) α subunit extracellular domain-His6-GST fusion (human, UniProt P12314 16-292).
T6 construct: Reported FcγRI values are the average of the plate ELISA on this fusion and of a flow cytometry assay on THP-1 cells; also called GST-FcγRIA; not shown: glutathione S-transferase (GST)
T6 sequence (P12314 other isoform, or with tags, fused parts or gaps, form in doubt): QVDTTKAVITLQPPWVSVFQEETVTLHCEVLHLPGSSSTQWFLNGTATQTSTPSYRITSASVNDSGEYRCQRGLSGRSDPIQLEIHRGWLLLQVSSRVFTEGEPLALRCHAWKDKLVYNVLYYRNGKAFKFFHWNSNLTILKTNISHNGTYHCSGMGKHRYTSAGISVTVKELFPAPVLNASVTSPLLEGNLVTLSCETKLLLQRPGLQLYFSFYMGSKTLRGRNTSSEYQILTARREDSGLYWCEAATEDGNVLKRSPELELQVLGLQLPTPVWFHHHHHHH
In words: monomeric IgG; ELISA on receptor-GST and THP-1 cells, averaged.

For assay [7], the target named is T7, human FcγRIIA-H131 α subunit extracellular domain-His6-GST fusion protein (human, UniProt P12318 34-217).
T7 construct: also called FcγRIIA-His131; not shown: glutathione S-transferase (GST)
T7 sequence: T1 sequence with R134H
In words: ELISA, IgG:IgE hexamer on coated FcγRIIA-H131-GST.

The target of assay [8] is T8, human FcγRIIIA-Val158 α subunit extracellular domain-His6-GST fusion protein (human, UniProt P08637 17-208).
T8 construct: ELISA-format target; also called FcγRIIIA-V158; not shown: glutathione S-transferase (GST)
T8 sequence (P08637 other isoform, or with tags, fused parts or gaps, form in doubt): as the sequence (P08637 other isoform, or with tags, fused parts or gaps) above, with F160V counted along it
Description: ELISA format, hexameric complex on FcγRIIIA-Val158.

In assay [9] the target is T7, human FcγRIIA-H131 α subunit …. Description: ELISA; binding ratio on FcγRIIA-H131 divided by that on FcγRIIA-R131.
The target in assay [10] is T9, human FcγRIIIA-Phe158 with human γ-chain on stably transfected CHO cells (human, UniProt P08637 17-254; P30273 19-86).
T9 construct: whole, on cells; CHO cells stably transfected with the α- and γ-chains of the receptor; also called FcγRIIIA-Phe158 (cell-based assay)
T9 sequence (P08637 17-254, chain 1 of 2): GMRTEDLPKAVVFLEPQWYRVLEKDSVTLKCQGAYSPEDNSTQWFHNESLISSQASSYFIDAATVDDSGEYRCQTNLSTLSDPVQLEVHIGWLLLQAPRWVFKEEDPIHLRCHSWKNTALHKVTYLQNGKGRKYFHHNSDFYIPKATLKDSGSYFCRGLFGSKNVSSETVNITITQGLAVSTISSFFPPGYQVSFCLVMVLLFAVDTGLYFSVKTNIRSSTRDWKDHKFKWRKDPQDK
T9 sequence (P30273 19-86, chain 2 of 2): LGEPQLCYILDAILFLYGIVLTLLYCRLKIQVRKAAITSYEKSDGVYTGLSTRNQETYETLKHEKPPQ
Description: flow cytometry, monomeric IgG on CHO cells with FcγRIIIA-Phe158 α- and γ-chains. (In flow cytometry, cells or beads pass a laser one at a time.)
Description: CHO cell transfection was carried out using Superfect (Qiagen) according to the manufacturer's instructions. […] Receptor expression levels were determined by staining with anti-FcγRIII monoclonal antibody 3G8 (Medarex). Binding of IgG1 variants was performed by adding monomeric IgG in staining buffer to 5×10^5 cells and incubating in 96 well round-bottom tissue culture plates (Costar, Cambridge, Mass.) at 4° C. for 30 min. Cells were washed three times with staining buffer and IgG binding detected by addition of 1:200 PE-F(ab')_2 fragment of goat anti-human IgG and incubation for 30 min at 4° C. After washing, immunofluorescence staining was analyzed on a FACScan flow cytometer using Cellquest software (Becton Dickinson). Dead cells were excluded from analysis by addition of 1 μg/ml propidium iodide.
For FcγRIIIA, the selected variants were assayed in the ELISA-format as well as on stable-transfected CHO cell lines expressing the γ-chains (FcγRIIIA-Phe158 or FcγRIIIA-Val158) with the associated human α-chain.

Assay [11] addresses T10, human FcγRIIIA-Val158 with human γ-chain on stably transfected CHO cells (human, UniProt P08637 17-254; P30273 19-86).
T10 construct: whole, on cells; CHO cells stably transfected with the α- and γ-chains of the receptor; also called FcγRIIIA-Val158 (cell-based assay); FcγRIIIA-V158
Description: flow cytometry, monomeric IgG on CHO cells with FcγRIIIA-Val158 α- and γ-chains.

Assay [12] has as its target T11, human FcγRIIIA-Phe158 α subunit extracellular domain-His6-GST fusion protein (human, UniProt P08637 17-208).
T11 construct: ELISA-format target; also called FcγRIIIA-F158; not shown: glutathione S-transferase (GST)
Description: ELISA, IgG:IgE hexamer on coated FcγRIIIA-Phe158-GST; value carried over from Table 6.

For assay [13], the target named is T12, human FcγRIIA-R131 α subunit extracellular domain-His6-GST fusion protein (human, UniProt P12318 34-217).
T12 construct: ECD-6His-GST fusion made in 293 cells, coated on the plate; also called FcγRIIA-Arg131; not shown: glutathione S-transferase (GST)
T12 sequence: T1 sequence
In words: ELISA, IgG:IgE hexamer on coated FcγRIIA-R131-GST; value carried over from Table 6, 7 or 8.

The target of assay [14] is T12, human FcγRIIA-R131 α subunit …. In words: ELISA, IgG:IgE hexamer on coated FcγRIIA-R131-GST; separate assays run together with the H131 assays.
Assay [15] has as its target T11, human FcγRIIIA-Phe158 α subunit …. Description: ELISA format, hexameric complex on FcγRIIIA-Phe158; separate assays run together with the Val158 assays.
For assay [16], the target named is T1, human FcγRIIA-Arg131 α subunit …. In words: hexamer ELISA. The source holds these as a separate data set.
Assay [17] addresses T2, human FcγRIIIA-Phe158 α subunit …. Description: hexamer ELISA. This is another data set of the same source.
Assay [18] has as its target T13, human neonatal Fc receptor (FcRn), biotinylated (human, UniProt P55899 24-297; P61769 21-119, biotinylated (biotin-X-NHS)).
T13 construct: captured on streptavidin plates
Description: FcRn ELISA, pH 6.0.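 Further: Streptavidin-captured FcRn plates, IgG variants titrated 2 h at pH 6.0, peroxidase anti-human IgG read at 450 nm, variant over standard concentration at the standard curve mid-point absorbance.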
Description: FcRn Binding ELISA: For measuring FcRn binding activity of IgG variants, ELISA plates were coated with 2 µg/ml streptavidin (Zymed, South San Francisco) in 50 mM carbonate buffer, pH 9.6, at 4° C. overnight and blocked with PBS-0.5% BSA, pH 7.2 at room temperature for one hour. Biotinylated FcRn (prepared using biotin-X-NHS from Research Organics, Cleveland, Ohio and used at 1–2 µg/ml) in PBS-0.5% BSA, 0.05% polysorbate 20, pH 7.2, was added to the plate and incubated for one hour. Two fold serial dilutions of IgG standard (1.6–100 ng/ml) or variants in PBS-0.5% BSA, 0.05% polysorbate 20, pH 6.0, were added to the plate and incubated for two hours. Bound IgG was detected using peroxidase labeled goat F(ab')_2 anti-human IgG F(ab')_2 in the above pH 6.0 buffer (Jackson ImmunoResearch, West Grove, Pa.) followed by 3,3',5,5'-tetramethyl benzidine (Kirgaard & Perry Laboratories) as the substrate. Plates were washed between steps with PBS-0.05% TWEEN 20® at either pH 7.2 or 6.0. Absorbance was read at 450 nm on a Vmax plate reader (Molecular Devices, Menlo Park, Calif.). Titration curves were fit with a four-parameter nonlinear regression curve-fitting program (KaleidaGraph, Synergy software, Reading, Pa.). Concentrations of IgG variants corresponding to the mid-point absorbance of the titration curve of the standard were calculated and then divided by the concentration of the standard corresponding to the mid-point absorbance of the standard titration curve.

Assay [19] addresses T14, human FcγRIA α subunit extracellular domain-His6-GST fusion (human, UniProt P12314 16-292).
T14 construct: extracellular domain; also called GST-FcγRIA; CD64; not shown: glutathione S transferase (GST)
Description: FcγRI ELISA, E27 background.

The target in assay [20] is T1, human FcγRIIA-Arg131 α subunit …. In words: immune complex ELISA, E27 background.
Assay [21] addresses T2, human FcγRIIIA-Phe158 α subunit …. In words: immune complex ELISA, E27 background.
Assay [22] deals with T14, human FcγRIA α subunit extracellular …. Description: FcγRI ELISA and THP-1 cells, averaged.

T10 sequence (P08637 17-254 F176V, chain 1 of 2): as the sequence (P08637 17-254, chain 1 of 2) above, with F160V counted along it
T10 sequence (P30273 19-86, chain 2 of 2): as the sequence (P30273 19-86, chain 2 of 2) above
T11 sequence (P08637 other isoform, or with tags, fused parts or gaps, form in doubt): as the sequence (P08637 other isoform, or with tags, fused parts or gaps) above
T14 sequence (P12314 other isoform, or with tags, fused parts or gaps): as the sequence (P12314 other isoform, or with tags, fused parts or gaps, form in doubt) above
T13 sequence (P55899 24-297 limits assumed, chain 1 of 2): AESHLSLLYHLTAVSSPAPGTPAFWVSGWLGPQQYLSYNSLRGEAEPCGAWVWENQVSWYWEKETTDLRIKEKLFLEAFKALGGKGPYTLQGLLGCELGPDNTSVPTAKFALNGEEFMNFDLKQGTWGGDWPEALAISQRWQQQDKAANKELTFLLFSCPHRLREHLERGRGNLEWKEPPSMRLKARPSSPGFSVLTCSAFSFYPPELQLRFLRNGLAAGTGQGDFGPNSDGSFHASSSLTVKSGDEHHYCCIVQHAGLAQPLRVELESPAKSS
T13 sequence (P61769 21-119 limits assumed, chain 2 of 2): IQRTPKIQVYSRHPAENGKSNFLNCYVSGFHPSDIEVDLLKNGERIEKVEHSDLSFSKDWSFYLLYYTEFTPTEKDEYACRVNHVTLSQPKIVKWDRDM

B1: anti-IgE E27 IgG1 Arg416 changed to Ala (antibody)
heavy: not shown
light: DIQLTQSPSSLSASVGDRVTITCRASKPVDGEGDSYLNWYQQKPGKAPKLLIYAASYLESGVPSRFSGSGSGTDFTLTISSLQPEDFATYYCQQSHEDPYTFGQGTKVEIKRTVAAPSVFIFPPSDEQLKSGTASVVCLLNNFYPREAKVQWKVDNALQSGNSQESVTEQDSKDSTYSLSSTLTLSKADYEKHKVYACEVTHQGLSSPVTKSFNRGEC
notes: named only by its position
For B1, the “reduction in binding against native IgG1” value in assay [1] and in assay [2] was 30% throughout.

B2: E27 IgG1 variant K334(353)M (antibody)
heavy: not shown
light: B1 light
notes: also called IG2 190
For B2, the “ratio to native IgG1” value in assay [3] was determined as 0.99; in assay [4], 0.93; in assay [5], 0.49; in assay [6] it was 1.18.

B3: anti-IgE E27 IgG1 variant Ser298Ala (antibody)
heavy: not shown
light: B1 light
notes: also called S317A
Consider B3, for which the “ratio of binding of the variant to that of native IgG1” value (from here on “ratio of binding of the variant”) in [7] is 0.24 ratio (variant/native IgG1); in assay [8], 1.07 ratio (variant/native IgG1); in assay [10], 1.85 ratio (variant/native IgG1); in [11], 1.18 ratio (variant/native IgG1); in [12] it was 1.34 ratio (variant/native IgG1); in assay [13], 0.4 ratio (variant/native IgG1). Besides, the “ratio of binding of the variant” value in assay [14] was 0.26 ratio (variant/native IgG1); in assay [15] it was 1.49 ratio (variant/native IgG1). The H131/R131 in assay [9] is 0.93 ratio (H131 value/R131 value).

B4: E27 IgG1 variant K334(353)W (antibody)
heavy: not shown
light: B1 light
On to B4, for which the “ratio to native IgG1” value in assay [3] was determined as 0.94; in [4], 0.91; in [5] it was 1.07; in assay [6], 1.16.

B5: E27 IgG1 variant K334(353)Y (antibody)
heavy: not shown
light: B1 light
Take B5: the “ratio to native IgG1” value was 1.08 in [3], 1.05 in assay [4], 1.31 in assay [5] and 1.15 in assay [6].

B6: E27 IgG1 variant K334(353)H (antibody)
heavy: not shown
light: B1 light
B6: the “ratio to native IgG1” value was 1.09 in assay [3], 1.07 in assay [4], 1.26 in assay [5] and 1.11 in assay [6].

B7: anti-IgE E27 IgG1 variant Asp265Ala (antibody)
heavy: not shown
light: B1 light
notes: also called D278A
As for B7, the “ratio of binding of the variant” value is 0.02 ratio (variant/native IgG1) in assay [8]; 0.12 ratio (variant/native IgG1) in assay [10]; 0.05 ratio (variant/native IgG1) in [11]; 0.09 ratio (variant/native IgG1) in assay [12]; 0.05 ratio (variant/native IgG1) in assay [15].

B8: anti-IgE E27 IgG1 Pro329Ala (antibody)
heavy: not shown
light: B1 light
notes: also called P329A
For the molecule B8, the “ratio to native IgG1” value turned out to be 0.08 ratio in assay [16], 0.21 ratio in assay [17], 0.8 ratio in assay [18] and 0.48 ratio in [22]. In addition, the “percentage of the wild type” value in assay [19] came to 104%; in [20] it was 111%; in [21] it was 85%.

B9: anti-IgE E27 IgG1 variant Glu333Ala (antibody)
heavy: not shown
light: B1 light
notes: also called E352A
Regarding B9, the “ratio of binding of the variant” value in [8] was 1.06 ratio (variant/native IgG1); in assay [10], 1.42 ratio (variant/native IgG1); in assay [11], 1.08 ratio (variant/native IgG1); in [12], 1.27 ratio (variant/native IgG1); in assay [15], 1.13 ratio (variant/native IgG1).

B10: anti-IgE E27 IgG1 variant Lys290Ala (antibody)
heavy: not shown
light: B1 light
notes: also called K290(307)A; K307A
As for B10, the “ratio of binding of the variant” value in assay [8] was 1.01 ratio (variant/native IgG1); in assay [10], 1.61 ratio (variant/native IgG1); in assay [11], 0.89 ratio (variant/native IgG1); in assay [12], 1.31 ratio (variant/native IgG1); in assay [15], 1.15 ratio (variant/native IgG1).

B11: anti-IgE E27 IgG1 variant Pro331Ala (antibody)
heavy: not shown
light: B1 light
notes: also called P331(350)A; IG2 65
In the case of B11, the “ratio of binding of the variant” value in assay [8] is 0.97 ratio (variant/native IgG1); in assay [10] it was 0.94 ratio (variant/native IgG1); in assay [11] it was 0.88 ratio (variant/native IgG1); in [12] it was 1.08 ratio (variant/native IgG1); in [15], 1 ratio (variant/native IgG1).

B12: anti-IgE E27 IgG1 variant Lys334Ala (antibody)
heavy: not shown
light: B1 light
notes: also called K353A
For B12, the “ratio of binding of the variant” value is 1.1 ratio (variant/native IgG1) in [8]; 2.46 ratio (variant/native IgG1) in assay [10]; 1.26 ratio (variant/native IgG1) in [11]; 1.39 ratio (variant/native IgG1) in [12]; 1.39 ratio (variant/native IgG1) in assay [15].
